The values that follow come from patent US5187153A, “Methods of treatment using Alzheimer's amyloid polypeptide derivatives” (Scios Nova Inc., priority 1990, dated 1993).

One assay concerns the target T1, Elastase (Sus scrofa, UniProt P00772).
T1 construct: elastase (33 U/mg from porcine pancreas); from tissue; host or cells: porcine pancreas
Put plainly: Protease inhibition, fluorogenic MCA substrate: elastase. It counts as biochemical, porcine. The settings on record: Elastase; substrate Suc-Ala-Pro-Ala-MCA; pH 7.0; 25° C. From the text:
(§1) The effects of A4 inhibitor on serine- and thiol- proteases were examined as follows: trypsin (17,000 units/mg from porcine pancreas), factor Xa and β-thrombin (gifts from Dr. Iwanagu, Kyushu University, Fukuoka, Japan), tryptase and chymase (both from rat peritoneal mast cells purified as described in Kido et al., Arch Biochem Biophys 239:436-443 (1985)), α-chymotrypsin (0.75 U/mg from bovine pancreas), elastase (33 U/mg from porcine pancreas), papain, cathepsin B (from rat liver purified as described in Towatari et al., Eur J Biochem 102:279-289 (1979)), plasmin (0.16 U/mg from human plasma), urokinase (0.75 U/mg from human kidney cells, Sigma Chemical Co.), tissue kallikrein (50 U/mg from porcine pancreas) or plasma kallikrein (9.4 U/mg from human plasma) was preincubated with various concentrations of the inhibitor in a total volume of 1.5 ml of buffer containing bovine serum albumin (0.1 mg/ml). […] The amount of 7-amino-4-methylcoumarin liberated from the substrates was determined fluorometrically with excitation and emission wavelengths of 380 nm and 460 nm, respectively, in a Hitachi fluorescence spectrophotometer, 650-10MS model, as reported in Kido et al. (1988), supra. Protein concentration was determined with bicinchoninic acid protein assay reagent as described by Smith et al., Anal. Biochem. 150:76-85 (1985). […]

For another assay, the target named is T2, Plasmin (Homo sapiens, UniProt P00747).
T2 construct: plasmin (0.16 U/mg from human plasma); from tissue; host or cells: human plasma
T2 sequence (P00747 581-810 limits assumed): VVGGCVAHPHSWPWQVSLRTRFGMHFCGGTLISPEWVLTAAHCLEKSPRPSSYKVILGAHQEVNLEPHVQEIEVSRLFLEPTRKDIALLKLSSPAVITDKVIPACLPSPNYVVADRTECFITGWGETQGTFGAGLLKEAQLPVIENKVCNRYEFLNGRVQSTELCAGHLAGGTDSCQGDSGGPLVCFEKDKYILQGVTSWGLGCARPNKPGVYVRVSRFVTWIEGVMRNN
T2 sequence (P00747 97-580 partner limits assumed): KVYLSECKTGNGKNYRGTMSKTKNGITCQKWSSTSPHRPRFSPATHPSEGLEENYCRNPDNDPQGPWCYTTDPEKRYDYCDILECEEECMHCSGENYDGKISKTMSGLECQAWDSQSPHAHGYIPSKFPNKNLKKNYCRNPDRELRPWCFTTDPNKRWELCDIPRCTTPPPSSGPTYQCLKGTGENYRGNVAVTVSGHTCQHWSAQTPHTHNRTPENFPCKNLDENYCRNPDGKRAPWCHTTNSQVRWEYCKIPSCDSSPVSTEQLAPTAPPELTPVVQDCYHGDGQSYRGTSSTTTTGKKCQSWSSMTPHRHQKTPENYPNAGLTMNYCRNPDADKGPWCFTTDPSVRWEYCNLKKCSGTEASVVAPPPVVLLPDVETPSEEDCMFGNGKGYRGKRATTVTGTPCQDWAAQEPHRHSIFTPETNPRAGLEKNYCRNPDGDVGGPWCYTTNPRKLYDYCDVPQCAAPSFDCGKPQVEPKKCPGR
Put plainly: Protease inhibition, fluorogenic MCA substrate: plasmin. It counts as biochemical.
Source text: as §1

Another assay addresses T3, Urokinase (Homo sapiens, UniProt P00749).
T3 construct: urokinase (0.75 U/mg from human kidney cells, Sigma Chemical Co.); purchased Sigma Chemical Co; host or cells: human kidney cells
Description: Protease inhibition, fluorogenic MCA substrate: urokinase. The format is biochemical.
Source text: as §1

A further assay addresses T4, Plasma kallikrein (Homo sapiens, UniProt P03952).
T4 construct: plasma kallikrein (9.4 U/mg from human plasma); from tissue; host or cells: human plasma
Put plainly: Protease inhibition, fluorogenic MCA substrate: plasma kallikrein. The format is biochemical.
Source text: as §1

The next assay has as its target T5, Tissue kallikrein (Sus scrofa, UniProt P00752).
T5 construct: tissue kallikrein (50 U/mg from porcine pancreas); from tissue; host or cells: porcine pancreas
Put plainly: Protease inhibition, fluorogenic MCA substrate: tissue kallikrein. The format is biochemical, porcine.
Source text: as §1

The next assay deals with T6, Papain (Carica papaya, UniProt P00784).
T6 sequence (P00784 134-345): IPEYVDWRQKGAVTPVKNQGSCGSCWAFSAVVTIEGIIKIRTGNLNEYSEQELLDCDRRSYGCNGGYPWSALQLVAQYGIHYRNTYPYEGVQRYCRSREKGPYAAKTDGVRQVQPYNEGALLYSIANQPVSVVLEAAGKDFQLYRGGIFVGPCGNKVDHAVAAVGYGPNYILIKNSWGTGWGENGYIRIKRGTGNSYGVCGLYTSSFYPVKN
Description: Protease inhibition, fluorogenic MCA substrate: papain. It counts as biochemical.
Source text: as §1

The next assay addresses T7, Cathepsin B (Rattus norvegicus, UniProt P00787).
T7 construct: cathepsin B (from rat liver purified as described in Towatari et al); from tissue; host or cells: rat liver
Description: Protease inhibition, fluorogenic MCA substrate: cathepsin B. It counts as biochemical.
Source text: as §1

T7 sequence (P00787 80-339): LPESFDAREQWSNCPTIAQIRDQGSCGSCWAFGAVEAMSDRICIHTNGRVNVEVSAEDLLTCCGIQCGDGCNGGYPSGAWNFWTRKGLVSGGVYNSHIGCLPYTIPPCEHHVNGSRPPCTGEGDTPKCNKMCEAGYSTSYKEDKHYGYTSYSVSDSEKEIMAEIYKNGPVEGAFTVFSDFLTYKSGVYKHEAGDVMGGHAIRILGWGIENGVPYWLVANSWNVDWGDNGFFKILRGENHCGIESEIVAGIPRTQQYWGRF
T4 sequence (P03952 20-638): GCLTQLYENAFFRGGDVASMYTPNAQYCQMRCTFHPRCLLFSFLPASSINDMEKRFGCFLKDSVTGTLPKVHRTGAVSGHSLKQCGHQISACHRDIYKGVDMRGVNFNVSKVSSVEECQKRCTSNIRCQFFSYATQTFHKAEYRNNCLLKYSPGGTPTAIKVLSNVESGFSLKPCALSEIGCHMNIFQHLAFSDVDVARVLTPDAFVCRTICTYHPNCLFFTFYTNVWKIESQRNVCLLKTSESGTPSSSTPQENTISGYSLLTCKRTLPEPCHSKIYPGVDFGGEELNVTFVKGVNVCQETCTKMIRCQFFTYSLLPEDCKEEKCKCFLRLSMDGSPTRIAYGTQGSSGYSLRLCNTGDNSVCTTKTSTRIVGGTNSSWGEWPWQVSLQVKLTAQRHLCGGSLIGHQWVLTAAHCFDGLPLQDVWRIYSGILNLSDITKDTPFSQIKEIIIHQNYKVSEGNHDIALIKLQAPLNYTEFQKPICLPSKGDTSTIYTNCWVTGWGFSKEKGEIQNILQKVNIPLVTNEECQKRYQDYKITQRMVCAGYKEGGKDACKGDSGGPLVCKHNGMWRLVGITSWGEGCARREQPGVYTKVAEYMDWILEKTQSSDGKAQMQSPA
T5 sequence (P00752 8-246): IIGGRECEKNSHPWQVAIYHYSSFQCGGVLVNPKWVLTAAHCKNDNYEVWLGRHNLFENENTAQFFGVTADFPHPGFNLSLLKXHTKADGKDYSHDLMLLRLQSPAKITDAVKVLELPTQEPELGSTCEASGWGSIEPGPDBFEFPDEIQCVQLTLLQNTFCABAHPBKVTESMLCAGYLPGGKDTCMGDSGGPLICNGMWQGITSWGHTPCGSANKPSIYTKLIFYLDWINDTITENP
T1 sequence (P00772 27-266): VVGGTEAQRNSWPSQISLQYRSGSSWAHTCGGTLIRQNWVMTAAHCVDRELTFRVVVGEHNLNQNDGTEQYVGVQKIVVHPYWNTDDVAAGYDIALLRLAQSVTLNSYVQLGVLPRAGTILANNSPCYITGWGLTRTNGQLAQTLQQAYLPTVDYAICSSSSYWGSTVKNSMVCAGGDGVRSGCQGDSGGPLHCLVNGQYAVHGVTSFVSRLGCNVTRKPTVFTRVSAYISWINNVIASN

On to “A4i: 57 amino acid Kunitz-type serine protease inhibitor encoded by the 168 bp insert of λAPCP168i4”, for which the inhibitory constant (Ki) with Elastase is more than 1000 nM; with Plasmin (Plasmin, substrate Boc-Val-Leu-Lys-MCA, pH 7.5, 25° C.) it was 0.075 nM; in the assay with Urokinase (Urokinase, substrate Glt-Gly-Arg-MCA, pH 7.5, 25° C.) it was more than 1000 nM; in the assay with Plasma kallikrein (Plasma kallikrein, substrate Z-Phe-Arg-MCA, pH 7.8, 25° C.), 73.9 nM; with Tissue kallikrein (Tissue kallikrein, substrate Pro-Phe-Arg-MCA, pH 7.8, 25° C.), 28.4 nM; in the assay with Papain (Papain, substrate Z-Phe-Arg-MCA, pH 6.0, 25° C.), more than 1000 nM. Further, in the assay with Cathepsin B (Cathepsin B, substrate Z-Phe-Arg-MCA, pH 6.0, 25° C.), the Ki was more than 1000 nM. Also, the “inhibition of plasmin (in words)” value with Plasmin is on record as “strongly inhibits”. The “inhibition of urokinase (in words)” value with Urokinase is recorded as “did not inhibit”. The “inhibition of serum kallikrein (in words)” value in the assay with Plasma kallikrein was “inhibits”. Besides, the “inhibition of tissue kallikrein (in words)” value with Tissue kallikrein is reported as “inhibits”. Besides, in the assay with Papain, the “inhibition of papain (in words)” value is given as “did not inhibit”. Further, the “inhibition of cathepsin B (in words)” value in the assay with Cathepsin B is given as “did not inhibit”.

The Ki is the equilibrium dissociation constant of an inhibitor or competing ligand from its target. A low value points to a stronger hold on the target.
